Experiments:
LSD2 = biological target: T1, LSD2 (Homo sapiens, UniProt Q8NB78); test: H3K4me2 peptide demethylation assay (MALDI-TOF); type: biochemical; conditions: shorter H3K4me2 peptide residues 1-15
T1 construct: 0.15 μM or 1.2 μM purified LSD2 (residues 51-822); His6 (cleaved yes); made in house; host or cells: Sf9 insect cells (baculovirus)
T1 sequence (Q8NB78 51-822): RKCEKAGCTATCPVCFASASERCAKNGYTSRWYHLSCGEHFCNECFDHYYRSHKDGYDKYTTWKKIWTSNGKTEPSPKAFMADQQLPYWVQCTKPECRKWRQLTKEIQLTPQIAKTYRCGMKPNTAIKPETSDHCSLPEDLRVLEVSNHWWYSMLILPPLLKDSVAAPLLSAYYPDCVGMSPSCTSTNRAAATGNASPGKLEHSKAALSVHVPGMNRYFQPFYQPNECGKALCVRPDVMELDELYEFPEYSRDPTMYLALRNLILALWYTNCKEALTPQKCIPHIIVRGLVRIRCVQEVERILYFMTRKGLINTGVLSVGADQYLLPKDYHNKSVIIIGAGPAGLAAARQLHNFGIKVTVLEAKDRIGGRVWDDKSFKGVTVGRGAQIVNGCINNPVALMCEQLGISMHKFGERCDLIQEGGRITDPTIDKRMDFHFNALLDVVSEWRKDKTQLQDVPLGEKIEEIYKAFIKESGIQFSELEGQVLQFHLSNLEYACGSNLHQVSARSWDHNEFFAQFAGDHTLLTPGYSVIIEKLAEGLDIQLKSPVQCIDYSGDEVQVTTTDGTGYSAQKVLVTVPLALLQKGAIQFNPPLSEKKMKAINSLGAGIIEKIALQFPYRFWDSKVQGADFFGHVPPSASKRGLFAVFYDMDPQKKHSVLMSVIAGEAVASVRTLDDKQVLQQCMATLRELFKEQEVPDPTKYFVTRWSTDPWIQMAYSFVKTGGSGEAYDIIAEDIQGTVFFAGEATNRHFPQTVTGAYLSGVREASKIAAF
Experimental: FIGS. 12A-12F depict analysis of LSD2 demethylation activity and mutational analysis. […] Demethylation products were analyzed by MALDI-TOF mass spectrometry. 0.15 μM LSD2 can efficiently demethylate the longer H3K4me2 peptide (1-21), but has no detectable activity on the shorter histone peptide (1-15), demethylation of which requires high concentration (1.2 μM) of LSD2. […] It indicates the importance of histone residue 16-21 to LSD2 enzymatic activity and NPAC cofactor activity, supporting our model that NPAC assists enzyme-substrate interactions by creating a new binding site for H3 L20 in the LSD2-NPAC complex. FIG. 12C depicts LSD2 demethylation and NPAC cofactor activity on longer H3K4me2 peptide (1-44). 2 μg H3K4me2 peptide (1-44) were incubated with 0.8 μg GST-LSD2 (1-822) and 2 μg wild-type or F217A full-length GST-NPAC proteins in 100 μl demethylation buffer (50 mM Tris-HCl pH 8.1, 1 mM NAD^+, 0.1 Unit formaldehyde dehydrogenase) at 30° C. for 2 hours. LSD2 alone can efficiently demethylate di-methyl H3K4 of the long peptides, converting large majority of the substrate to H3K4me1. Wild-type NPAC protein can efficiently stimulate LSD2 demethylation, producing unmethylated H3K4. F217A mutation impairs NPAC cofactor activity as expected, showing little stimulatory effect if any. To compare demethylation efficiency, 1.2 μg bio-H3K4me2 peptide (H3 residue 1-21, equal molar ratio to 2 ug H3K4me2 1-44 peptide in above assays) was demethylated by LSD2 under identical conditions (bottom panel). […] The cofactor activity of wild-type NPAC was readily detected under the same conditions. […] Importantly, the demethylation of nucleosomal H3K4me2 was much more efficient in the presence of wild-type NPAC under same conditions (comparing lane 3 verse 4, and 8 verse 9). It is noted that no obvious cofactor effect of F217A peptide or linker regions was detected in nucleosome and peptide demethylation assays (FIG. 6E and data not shown). FIG. 12F depicts Coomassie staining of NPAC proteins used in histone demethylase assays. FIG. 12F discloses “His6” as SEQ ID NO: 75.
Histone peptides are purchased from Millipore, or custom synthesized. The purity of all peptides are >95% as determined by HPLC and mass spectrometry. In vitro histone demethylase activity assays were performed as described (Shi et al., 2004). Briefly, purified LSD2 and NPAC derived peptides or proteins were incubated with 50 μM H3K4me2 peptides (residues 1-21) in 50 mM Tris-HCl, pH 8.5, 50 mM KCl, 5 mM MgCl2, 5% glycerol at 37° C. for 30 min. The products were desalted through a C18 Ziptip (Millipore) and analyzed on a MALDI-TOF micro MX mass spectrometer (ABI 4700, Applied Biosystems). The laser intensity was kept constant for all of the samples. All MS data were processed using Data Explorer 4.5 (Applied Biosystems). […]

[1] = test system: CCND1 and CCNE1 expression; test: CCND1 and CCNE1 expression in breast cancer cells; type: cell-based; conditions: stable MDA-MB-231 cell lines, shRNA-resistant cDNA
Text: We first established stable MDA-MB-231 cell lines that express similar levels of the mutant or the wild-type full-length NPAC from cDNAs introduced with silent mutations and resistant to NPAC shRNA (data not shown). […] Thus, mutation of the LSD2-interacting residues F218, L219 and L291 of NPAC can disrupt LSD2 and NPAC functions in vivo.
We next examined if it is possible to use a small molecule to manipulate the interaction between NPAC and LSD2, thus affecting target gene expression. We have shown that a short mutant NPAC peptide (residues 214-225) can interact with LSD2 with high affinity, however, lost its cofactor activity. NPAC214-225.F217A is expected to be able to competitive inhibit the interaction between endogenous NPAC and LSD2, without stimulating LSD2 demethylase activity (FIG. 25A, right). […] Thus, unable to stimulate the histone demethylase activity of endogenous LSD2, this mutant peptide is a potent inhibitor of LSD2 function by competitively inhibiting LSD2 binding by endogenous NPAC.

- Cofactor activity: stimulation of LSD2 demethylation of H3K4me2 peptide (LSD2): did not detect NPAC cofactor activity
B1: NPAC: full-length human NPAC/GLYR1 (protein ID: Q49A26), recombinant, LSD2 cofactor (protein)
chain: MAAVSLRLGDLVWGKLGRYPPWPGKIVNPPKDLKKPRGKKCFFVKFFGTEDHAWIKVEQLKPYHAHKEEMIKINKGKRFQQAVDAVEEFLRRAKGKDQTSSHNSSDDKNRRNSSEERSRPNSGDEKRKLSLSEGKVKKNMGEGKKRVSSGSSERGSKSPLKRAQEQSPRKRGRPPKDEKDLTIPESSTVKGMMAGPMAAFKWQPTASEPVKDADPHFHHFLLSQTEKPAVCYQAITKKLKICEEETGSTSIQAADSTAVNGSITPTDKKIGFLGLGLMGSGIVSNLLKMGHTVTVWNRTAEKCDLFIQEGARLGRTPAEVVSTCDITFACVSDPKAAKDLVLGPSGVLQGIRPGKCYVDMSTVDADTVTELAQVIVSRGGRFLEAPVSGNQQLSNDGMLVILAAGDRGLYEDCSSCFQAMGKTSFFLGEVGNAAKMMLIVNMVQGSFMATIAEGLTLAHVTGQSQQTLLDILNQGQLASIFLDQKCQNILQGNFKPDFYLKYIQKDLRLAIALGDAVNHPTPMAAAANEVYKRAKALDQSDNDMSAVYRAYIH
- Rescue of CCND1 and CCNE1 down regulation caused by NPAC shRNA [1]: prevents down regulation of CCND1 and CCNE1 by NPAC shRNA
